Source: patent publication US12365710B2, “HMGB1 protein derivatives for the removal of biofilms” (RESEARCH INSTITUTE AT NATIONWIDE CHILDREN'S HOSPITAL, priority 2018, dated 2025)
Read-outs that look alike come from different tables or passages of the source.

What was measured:
B. cenocepacia = format: in vivo, C57BL/6 mice; settings: 0.2 nmol administered 24 h after challenge, collected 48 h after treatment
Description: FIGS. 7A-7G: HMGB1 promotes clearance of S. cenocepaca from mice without inducing sepsis. C57BL/6 mice were challenged with 10^7 CFU intratracheally, and either simultaneously (prevention) or 24 h later (treatment) received 0.2 nmol of HMGB1 valiant. (FIG. 7A) Aggregates of B. cenocepacia were visible by fluorescence microscopy in lung sections probed with an α-B. cenocepacia antibody. For prevention, (FIG. 7B) bronchoalveolar lavage (BAL) collected 18 h post-inoculation (hpi) was analyzed for CFU. (FIG. 7C) Neutrophils in BAL were quantified by differential cell counting. (FIG. 7D) Lung tissue collected 72hpi was fixed, embedded, sectioned, and stained with hematoxylin & eosin (10× magnification). For treatment, 72hpi (FIG. 7E) CFUs were quantified in BAL. (FIG. 7F) Neutrophil recruitment was analyzed 24 h after intraperitoneal (i.p.) administration of HMGB1 valiants by fluorescence-activated cell sorting of peritoneal lavage stained with α-CD45, α-CD11b, and αLy-6G. (FIG. 7G) Serum TNF-α. was measured by ELISA in mice injected i.p. with 0.2 nmol HMGB1 valiants, 5 mg/kg LPS, or both. LoD: limit of detection. Bars represent SD. *P<0.05.
rHMGB1 and mHMGB1 disrupt biofilms in two distinct animal models but the inflammatory response is strongly attenuated with Cys to Ser mutations: Applicant tested both rHMGB1 and mHMGB1 for their ability to treat middle ear infection and the corresponding inflammatory response using a well-established chinchilla model of experimental OM due to NTHI49,67,68 wherein adhered mucosal biofilm formation plays a key role in pathogenesis (FIG. 8A). […] On day 6, animals were sacrificed and middle ears were imaged and blindly scored for biofilm that remained (FIG. 8A) and mucosal inflammation (FIG. 8B). […] Next, Applicant determined whether rHMGB1 or mHMGB1 could prevent or aggregate biofilm development. […] Bc formed aggregates that were readily visible in lung sections probed with Bc antibody (FIG. 7A). […] Next, Applicant assessed the ability of rHMGB1 and mHMGB1 to treat established Bc infection. […]

serum TNF-alpha (TNF-α) = settings: cited from earlier work
NTHI biofilms = format: in vivo, chinchilla; settings: for reduction in CFU of NTHI: 0.2 nmol to middle ear at days 4 and 5 post-challenge, day 6, vs diluent
Description: FIGS. 8A-8F: rHMGB1 and mHMGB1 promote biofilm resolution in an experimental otitis media model. Diluent, 0.2 nmol rHMGB1, or 0.2 nmol mHMGB1 were delivered directly to middle ears of chinchillas at 4 and 5 days post-challenge with NTHI. Animals were sacrificed 24 h later, middle ears were imaged (FIG. 8C, representative images) and, based on the criteria described in (FIG. 8A, biofilm) and (FIG. 8B, inflammation), blindly scored for presence of biofilm (FIG. 8D) and inflammation (FIG. 8F). CFU of NTH1 present in the mucosal biomass were quantified (FIG. 8E). Means and SEM are plotted. **P<0.01, ****P<0.0001.
rHMGB1 and mHMGB1 disrupt biofilms in two distinct animal models but the inflammatory response is strongly attenuated with Cys to Ser mutations: Applicant tested both rHMGB1 and mHMGB1 for their ability to treat middle ear infection and the corresponding inflammatory response using a well-established chinchilla model of experimental OM due to NTHI49,67,68 wherein adhered mucosal biofilm formation plays a key role in pathogenesis (FIG. 8A). The middle ear of mixed sex, outbred adult chinchillas were inoculated with 1000 CFU NTHI by transbullar injection. At days 4 and 5 post-challenge, at which time there is abundant biofilm present in the middle ear space, […] of rHMGB1, mHMGB1, or diluent was delivered directly to the middle ear (2 total treatments). On day 6, animals were sacrificed and middle ears were imaged and blindly scored for biofilm that remained (FIG. 8A) and mucosal inflammation (FIG. 8B). […] In contrast, MEFs from mHMGB1-treated animals had increased anti-inflammatory cytokines [IL-4 (2-fold), IL-10 (5-fold)] […] Next, Applicant determined whether rHMGB1 or mHMGB1 could prevent or […] biofilm development. For prevention, adult C57BL/6 mice were challenged with 10^7 CFU of Bc intratracheally (i.t.), and 0.2 nmol of rHMGB1 or mHMGB1 was added simultaneously. After 18 h, mice were euthanized, and bronchoalveolar lavage (BAL) and lungs were collected. Bc formed aggregates that were readily visible in lung sections probed with Bc antibody (FIG. 7A). Tissue was homogenized and CFUs were enumerated. […] This same animal model was then used to investigate lung damage 72 h post-challenge with Bc and administration of rHMGB1 or mHMGB1. Lungs were collected and tissue was fixed, embedded in paraffin, sectioned, and stained with Haematoxylin and Eosin (H&E). […] Next, Applicant assessed the ability of rHMGB1 and mHMGB1 to treat established Bc infection. Mice were challenged as above and 0.2 nmol rHMGB1 or mHMGB1 was administered 24 h later. 48 h after treatment, mice were euthanized and BAL and lungs were collected and processed as above. […]

[1] = tested on: biofilms present in CF sputum; experiment: disruption of CF sputum (optical density of surrounding media); settings: CF sputum suspensions in PBS, 37° C.; compared with Pulmozyme and anti-DNABII
Description: FIGS. 10A-10B: HMGB1 In specimens from biofilm-associated diseases. (FIG. 10A) Sections of OCT-embedded mucosal biomass from an NTHI-infected chinchilla middle ear were co-labeled for HMGB1 and DNABII protein for immunofluorescence microscopy. Double stranded eDNA was labeled with DAPI (white). (FIG. 10B) CF sputum incubated with antibiofilm treatments (PBS, 1:10 rabbit a-1HFEc, serum, 100 U/ml Pulmozyme® (DNase), 1 mM rHMGB1) at 37° C. for […] and optical density of surrounding media was measured at 0 hour and 2 hour.
HMGB1 disrupts biofilms present in clinical specimens: Biofilms at chronic disease sites (e.g. CF lung), consist of multiple species and by nature are difficult to eradicate. It has been shown that anti-DNABII antibodies to disrupt biofilms present in CF sputum.

B. cenocepacia biofilm = format: cell-based, Burkholderia cenocepacia; settings: 200 nM added at 24 h, 16 h exposure
Description: Indicated HMGB1 variants or antibodies against DNABII proteins (α-1HFEc 1gG, 1 μM) were added at 24 h to the respective preformed bacterial biofilms, in vitro. After 16 h of Incubation, biofilms were stained with LIVE/DEAD®, then visualized via confocal laser scanning microscopy. Images were analyzed by COMSTAT to calculate average thickness and comparison to control was plotted. (FIG. 5A) Full-length HMGB1 isoforms (200 nM unless otherwise indicated) added to UPEC, B. cenocepacia, NTHI, or ESKAPE pathogens. 800 nM rHMGB1 and 200 nM mHMGB1 were added for S. aureus (ESKAPE). 800 nM rHMGB1, 800 nM mHMGB1, or 3.3 μM of α-1HFEc 1gG were added for E. faecium (ESKAPE) and were incubated for 1 h as opposed to 16 h to avoid potential degradation by E. faecium proteases. […] (FIG. 5C) Individual domains of HMGB1 (200 nM) were tested for anti-biofilm activity as above (dotted line indicates control values). Bars represent the SEM. Statistical significance compared to control was assessed with unpaired t-tests, *P<0.05. […] After 16 h of incubation, biofilms were stained with LIVE/DEAD®, then visualized via confocal laser scanning microscopy. Images were analyzed by COMSTAT to calculate average thickness and total biomass. Error bars represent the SEM. ***P<0.0001; ns=not significant.
These HMGB1 isoforms were evaluated for ability to disrupt established biofilms (formed for 24 h prior to addition).

What does the source list for “rHMGB1: tagless human recombinant full length HMGB1 (1-215) expressed in E. coli”?
Bc CFU in lungs / BAL (B. cenocepacia): significantly fewer Bc in their lungs; Bc CFU in lungs / BAL (B. cenocepacia; listed as HMGB1): significantly decreased; amount required to induce sepsis, compared to our doses (serum TNF-alpha (TNF-α); 4 doses in 40 h, LPS-primed mice): 2 fold; reduction in CFU of NTHI (NTHI biofilms): ~1000 fold; increased IL-1β in middle ear fluids (NTHI biofilms; in vivo): 3 fold; increased IL-17A in middle ear fluids (NTHI biofilms; in vivo): 2 fold; disruption of CF sputum [1]: can disrupt biofilms present in CF sputum

B1: B-linker Box: HMGB1 B Box with N- and C-terminal linker (80-179; 80 to 176 in b258), 97 amino acid (protein, UniProt P09429 80-179, looked up, fragment)
chain: PPKGETKKKFKDPNAPKRPPSAFFLFCSEYRPKIKGEHPGLSIGDVAKKLGEMWNNTAADDKQPYEKKAAKLKEKYEKDIAAYRAKGKPDAAKKGVVKAE
For B1, which “disruption of established Bc biofilms” value (B. cenocepacia biofilm) is on record?
The value was “retained full anti-biofilm activity”.

And the “amount required to induce sepsis, compared to our doses” value (serum TNF-alpha (TNF-α); B Box alone)?
The value was greater than 450 fold.

What about the “disruption of CF sputum” value [1] of the same molecule?
Its value is “disrupted sputum effectively”.

B2: mHMGB1: engineered C45S variant of full length rHMGB1 that mimics the reduced form of HMGB1 (protein, UniProt P09429 1-215, looked up, variant C45S)
chain: MGKGDPKKPRGKMSSYAFFVQTCREEHKKKHPDASVNFSEFSKKSSERWKTMSAKEKGKFEDMAKADKARYEREMKTYIPPKGETKKKFKDPNAPKRPPSAFFLFCSEYRPKIKGEHPGLSIGDVAKKLGEMWNNTAADDKQPYEKKAAKLKEKYEKDIAAYRAKGKPDAAKKGVVKAEKSKKKKEEEEDEEDEEDEEEEEDEEDEDEEEDDDDE
modifications: full-length
notes: engineered C45S variant of full length rHMGB1 that mimics the reduced form of HMGB1
What does the source list for B2?
Bc CFU in lungs / BAL (B. cenocepacia): significantly fewer Bc in their lungs; reduction in CFU of NTHI (NTHI biofilms): ~1000 fold
